Assay results published in publication PMC12830901.

What was measured:
Assay in all cases: split reporter (BiFC, NanoBiT); receptor-SmBiT and LgBiT-mini-G, LgBiT-mini-GΔα5 or LgBiT-β-arrestin transiently co-transfected in HEK293T; live cells 48 h after transfection; NanoBiT PPI system (Promega), luminescence normalised by the expression of both constructs; in the mutant and ΔHA panels the mini-GΔα5 signal was subtracted and results given as a percentage of the reference construct
[1] = biological target: ADGRL4-CTF1 I411A (human) (UniProt Q9HBW9)
[2] = biological target: ADGRL4-CTF1 L412A (human) (UniProt Q9HBW9)
[3] = biological target: ADGRL4-CTF1 H408A (human) (UniProt Q9HBW9)
[4] = biological target: ADGRL4-CTF1 S414A (human) (UniProt Q9HBW9)
[5] = biological target: ADGRL4-CTF1 F409A (human) (UniProt Q9HBW9)

Q: Which reduction of Gq activity, percent of wild-type CTF1 [1] does the source give for LgBiT-mini-Gq (mini-Gs/q version 70) here?
A: > 50%

Q: What about the reduction of Gq activity, percent of wild-type CTF1 [2] of the same substance?
A: > 50%

Q: And the reduction of Gq activity, percent of wild-type CTF1 [3]?
A: > 50%

Q: What about the reduction of Gq activity, percent of wild-type CTF1 [4] of the same substance?
A: > 50%

Q: And the Gq activity, percent of wild-type CTF1 (% of wild-type CTF1) [5]?
A: 12
